The values that follow come from patent US20240092889A1 (Chugai, published 2024).

To fix the notation:
T1: recombinant human C1r2s2 tetramer (human, UniProt P09871 16-688; P00736 18-705)
T1 construct: C1s and C1r co-expressed in HEK293/FreeStyle 293-F and purified from conditioned medium
T1 chain 1: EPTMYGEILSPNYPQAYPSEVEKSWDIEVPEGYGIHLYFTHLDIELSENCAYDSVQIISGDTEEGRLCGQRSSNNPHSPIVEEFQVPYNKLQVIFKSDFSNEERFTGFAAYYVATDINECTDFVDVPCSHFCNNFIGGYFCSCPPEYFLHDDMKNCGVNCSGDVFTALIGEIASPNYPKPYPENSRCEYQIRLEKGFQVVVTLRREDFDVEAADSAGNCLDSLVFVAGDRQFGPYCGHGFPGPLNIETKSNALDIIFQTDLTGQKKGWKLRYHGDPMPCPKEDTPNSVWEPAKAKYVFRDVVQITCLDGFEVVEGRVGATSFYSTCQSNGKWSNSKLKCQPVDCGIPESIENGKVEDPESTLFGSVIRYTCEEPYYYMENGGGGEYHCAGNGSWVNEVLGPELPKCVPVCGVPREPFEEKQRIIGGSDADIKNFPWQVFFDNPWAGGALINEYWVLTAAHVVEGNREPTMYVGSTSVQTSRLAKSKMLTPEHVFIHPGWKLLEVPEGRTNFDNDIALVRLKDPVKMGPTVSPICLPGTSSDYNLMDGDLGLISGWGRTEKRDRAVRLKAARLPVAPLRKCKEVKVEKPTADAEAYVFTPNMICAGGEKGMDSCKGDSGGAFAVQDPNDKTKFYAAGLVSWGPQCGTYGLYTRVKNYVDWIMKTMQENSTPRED
T1 chain 2: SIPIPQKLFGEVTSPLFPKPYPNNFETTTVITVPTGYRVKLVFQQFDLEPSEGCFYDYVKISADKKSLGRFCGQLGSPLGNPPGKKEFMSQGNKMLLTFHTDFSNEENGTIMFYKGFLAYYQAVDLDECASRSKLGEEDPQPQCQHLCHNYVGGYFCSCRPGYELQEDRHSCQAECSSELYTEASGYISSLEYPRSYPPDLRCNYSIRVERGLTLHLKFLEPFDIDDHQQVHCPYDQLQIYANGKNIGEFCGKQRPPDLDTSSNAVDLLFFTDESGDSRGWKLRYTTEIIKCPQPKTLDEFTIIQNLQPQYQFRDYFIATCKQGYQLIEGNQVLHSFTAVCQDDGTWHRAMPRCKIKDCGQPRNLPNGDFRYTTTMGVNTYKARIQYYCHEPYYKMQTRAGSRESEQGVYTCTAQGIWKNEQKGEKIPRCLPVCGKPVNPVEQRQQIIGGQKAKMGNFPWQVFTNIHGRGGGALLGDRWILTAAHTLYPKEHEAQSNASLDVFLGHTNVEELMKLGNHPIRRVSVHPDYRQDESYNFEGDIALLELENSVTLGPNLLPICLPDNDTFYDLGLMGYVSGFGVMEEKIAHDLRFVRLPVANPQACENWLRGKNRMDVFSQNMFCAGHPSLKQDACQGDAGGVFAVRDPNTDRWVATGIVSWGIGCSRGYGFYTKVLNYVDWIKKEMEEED

B1: COS0637pHv7-TT91R (antibody, V domains shown)
VH: QVQLVESGGGVVQPGRSLRLSCAASGFTFSAYAMNWIRQPPGKGLEWIGLIYGSGHEFYASWAEERVTISVDTSKNQFSLKLSSVTAADTAVYYCARGRSKNYNSDFHLWGQGTLVTVSS
VL: DIQMTQSPSSLSASVGDRVTITCQASQILHDKKNLAWYQQKPGQPPKLLIYQASQLESGVPSRFSGSGSGTDFTLTISSLQPEDFATYYCHGEFSYSSADLNTFGQGTKVEIKR
B2: COS0637temp-TT91R (antibody)
heavy: QVQLVESGGGVVQPGRSLRLSCAASGFTFSAYAMNWIRQPPGKGLEWIGLIYGSGSTFYASWAKGRVTISVDTSKNQFSLKLSSVTAADTAVYYCARGRSVNYNSDFHLWGQGTLVTVSSASTKGPSVFPLAPSSKSTSGGTAALGCLVKDYFPEPVTVSWNSGALTSGVHTFPAVLQSSGLYSLSSVVTVPSSSLGTQTYICNVNHKPSNTKVDKRVEPKSCDKTHTCPPCPAPEYLGGDSVFLFPPKPKDVLMISRTPEVTCVVIDVSHEDPEVKFNWYVDGVEVHNAKTKPREEQYNSTYRVVSVLPVLHRDWLNGKEYKCKVSNKALPKPIEKTISKAKGQRREPQVYTLPPSREEMTKNQVSLTCLVKGFYPSDIAVEWESNGQPENNYKTTPPVLDSDGSFFLYSKLTVDKSRWQQGNVFSCSVLHEALHAHTTRKELSLSP
light: DIQMTQSPSSLSASVGDRVTITCQASQSLHDKKNLAWYQQKPGQPPKLLIYGASTLESGVPSRFSGSGSGTDFTLTISSLQPEDFATYYCQGEFSCSSADCNTFGQGTKVEIKRTVAAPSVFIFPPSDEQLKSGTASVVCLLNNFYPREAKVQWKVDNALQSGNSQESVTEQDSKDSTYSLSSTLTLSKADYEKHKVYACEVTHQGLSSPVTKSFNRGEC
notes: COS0637h with K101H in HCDR3; CH TT91R, CL SK1
B3: COS0637pHv9-TT91R (antibody, V domains shown)
VH: B1 VH
VL: B1 VL with S26N, L56R, S95P, S97E
B4: COS0637pHv1-TT91R (antibody, V domains shown)
VH: B1 VH with G55K, H56S, E57T, E65G
VL: B1 VL with I28S, Q52G, Q55T, H91Q, Y96C, L101C
B5: COS0637pHv8-TT91R (antibody, V domains shown)
VH: B1 VH
VL: B1 VL with S26N, Q52G, Q55T
B6: COS0637h-TT91R (antibody, human IgG1, V domains shown)
VH: B1 VH with H56S, E57T, E64K, E65G, K101V, H108K
VL: B1 VL with I28S, Q52G, Q55T, H91Q, Y96C, L101C
notes: Humanized COS0637cc; modified human IgG1 CH TT91R, human CL SK1
B7: COS0637pHv6-TT91R (antibody, V domains shown)
VH: B1 VH with T28S, N104V, D106G
VL: B1 VL with S26Q, K33R, S97E
B8: COS0637pHv2-TT91R (antibody, V domains shown)
VH: B1 VH with T28R, S54K, H56S, E57T, E64K, K101V
VL: B1 VL with I28S, Q52G, Q55T, H91Q, Y96C, L101C
B9: COS0637pHv4-TT91R (antibody, V domains shown)
VH: B1 VH with T28S, N104V, D106G
VL: B1 VL with S97E, T103Q
B10: COS0637cc-TT91R (antibody, human IgG1)
heavy: QSLEESGGRLVTPGTPLTLTCTASGFSLSAYAMNWVRQAPGKGLEWIGLIYGSGSTFYASWAKGRFTISKTSTTVDLKMTSLTTEDTATYFCARGRSVNYNSDFKLWGPGTLVTVSSASTKGPSVFPLAPSSKSTSGGTAALGCLVKDYFPEPVTVSWNSGALTSGVHTFPAVLQSSGLYSLSSVVTVPSSSLGTQTYICNVNHKPSNTKVDKRVEPKSCDKTHTCPPCPAPEYLGGDSVFLFPPKPKDVLMISRTPEVTCVVIDVSHEDPEVKFNWYVDGVEVHNAKTKPREEQYNSTYRVVSVLPVLHRDWLNGKEYKCKVSNKALPKPIEKTISKAKGQRREPQVYTLPPSREEMTKNQVSLTCLVKGFYPSDIAVEWESNGQPENNYKTTPPVLDSDGSFFLYSKLTVDKSRWQQGNVFSCSVLHEALHAHTTRKELSLSP
light: QVLTQTPSSVSAAVGGTVTINCQASQSLHDKKNLAWYQHKPGQRPNLLIYGASTLESGVPSRFKGSGSGTEYTLTISDLECDDAAAYYCQGEFSCSSADCNTFGGGTKVEIKRTVAAPSVFIFPPSDEQLKSGTASVVCLLNNFYPREAKVQWKVDNALQSGNSQESVTEQDSKDCTYSLSSTLTLSKADYEKHKVYACEVTHQGLSSPVTKSFNRGEC
notes: Rabbit variable regions (chimera) with modified human IgG1 CH TT91R and modified human CL KOMC; also called COS637cc-TT91R
B11: AL0737 (antibody, human IgG1, kappa, V domains shown)
VH: B1 VH with H56S, E57T, E64K, E65G, K101V
VL: B1 VL with I28S, Q52G, Q55T, H91Q, Y96W
notes: COS0637temp with VL C94W/C95dL (Kabat), already in the VL entry
B12: AL0744 (antibody, human IgG1, kappa, V domains shown)
VH: B1 VH with H56S, E57T, E64K, E65G, K101V
VL: B1 VL with I28S, Q52G, Q55T, H91Q, Y96W, L101M
notes: COS0637temp with VL C94W/C95dM (Kabat), already in the VL entry
B13: AL0743 (antibody, human IgG1, kappa, V domains shown)
VH: B1 VH with H56S, E57T, E64K, E65G, K101V
VL: B1 VL with I28S, Q52G, Q55T, H91Q
notes: COS0637temp with VL C94Y/C95dL (Kabat), already in the VL entry; template for further optimization

Numbering of substitutions follows the chain as printed. Names may count otherwise.

The first experiment deals with T1, recombinant human C1r2s2 tetramer. The experiment can be described thus: SPR (BIACORE T200), 37 C, Ab captured via anti-human Ig kappa, human C1r2s2 as analyte, pH 7.4. As to the method: (§1) KD (dissociation constant) value of each samples at pH 7.4 and pH 5.8 are determined at 37 degrees C. using BIACORE® T200 instrument (GE Healthcare). Purified Mouse Anti-Human Ig kappa Light Chain (GE Healthcare) can be immobilized onto all flow cells of a CMS sensor chip using an amine coupling kit (GE Healthcare). 20 mM ACES, 150 mM NaCl, 1.2 mM CaCl2, 1 mg/mL BSA (IgG-free), 1 mg/mL CMD, 0.05% Tween® 20, 0.005% NaN3, pH 7.4 or pH 5.8 buffer were used as running buffer. Each antibody can be captured onto the sensor surface by Anti-Human Ig kappa Light chain. Antibody capture levels are aimed at 50 resonance unit (RU). […] Sensor surface is regenerated each cycle with, e.g., Glycine pH 2.0 (GE Healthcare). KD values were obtained using BIACORE® T200 Evaluation software, version 2.0 (GE Healthcare).
(Surface plasmon resonance follows binding to a sensor surface in real time, without labels.)
As to B1, the dissociation constant (Kd) (usually the free concentration of one partner at which half of the binding sites on the other are occupied at equilibrium, for simple one-to-one binding) was 4.9 nM.

On to B2, for which the Kd was 55 nM.

As to B3, the Kd stood at 3.48 nM.

On to B4, for which the Kd amounted to 17.2 nM.

As to B5, the Kd came to 7.46 nM.

With B6, the Kd worked out at 25.4 nM.

B7: the Kd amounted to 8.39 nM.

Consider B8, for which the equilibrium dissociation constant (Kd) came out at 13.4 nM.

B9: the Kd worked out at 8.23 nM.

With B10, the Kd was 4.48 nM.

A further experiment has the same target. In words: SPR (BIACORE T200), 37 C, Ab captured via anti-human Ig kappa, human C1r2s2 as analyte, pH 5.8. On the procedure:
as §1
B1: the Kd came to 353 nM.

On to B2, for which the Kd is 6390 nM.

Consider B3, for which the Kd was found to be 157 nM.

On to B4, for which the Kd was 3600 nM.

With B5, the Kd amounted to 874 nM.

As for B6, the Kd was 362 nM.

Turning to B7, the equilibrium dissociation constant (Kd) was 838 nM.

Take B8: the Kd came to 588 nM.

Consider B9, for which the Kd was 811 nM.

With B10, the Kd came to 43.3 nM.

The target is the same in another experiment. The experiment can be described thus: SPR (BIACORE T200), 37 C, ratio of KD at pH 5.8 to KD at pH 7.4. As to the method: as §1
In the case of B1, the “KD (pH 5.8)/KD (pH 7.4)” value is 72.

Turning to B2, the “KD (pH 5.8)/KD (pH 7.4)” value was 116.

In the case of B3, the “KD (pH 5.8)/KD (pH 7.4)” value amounted to 45.

Consider B4, for which the “KD (pH 5.8)/KD (pH 7.4)” value is 209.

Take B5: the “KD (pH 5.8)/KD (pH 7.4)” value came to 117.

B6: the “KD (pH 5.8)/KD (pH 7.4)” value turned out to be 14.

Take B7: the “KD (pH 5.8)/KD (pH 7.4)” value is 100.

On to B8, for which the “KD (pH 5.8)/KD (pH 7.4)” value is 44.

Regarding B9, the “KD (pH 5.8)/KD (pH 7.4)” value stood at 99.

For the molecule B10, the “KD (pH 5.8)/KD (pH 7.4)” value came out at 10.

For a further experiment the target is unchanged. The experiment can be described thus: SPR (BIACORE), antibody captured by ProL, human C1r2s2 injected at 100 nM, pH 7.4, 37 C; y axis Response/Capture. On the procedure: Analysis of interaction between antibody variants and the human C1r2s2 prepared as mentioned above was carried out at pH7.4, at 37 degrees C. using BIACORE® T200 instrument (GE Healthcare) or BIACORE® 4000 (GE Healthcare). ProL (BioVision) was immobilized onto a CM4 sensorchip using amine coupling kit (GE Healthcare) according to the recommended settings by GE Healthcare. Antibodies and analytes were diluted into the respective running buffers, ACES pH7.4 (20 mM ACES (N-(2-Acetamido)-2-aminoethanesulfonic acid), 150 mM NaCl, 1.2 mM CaCl2, 1 mg/ml bovine serum albumin (BSA), 1 mg/ml CMD (CM-Dextran sodium salt), 0.05% Tween® 20 (polysorbate 20), 0.005 w/v % NaN3). Each antibody was captured onto the sensor surface by ProL. Antibody capture levels were aimed at 200 resonance units (RU). Then, recombinant human C1r2s2 was injected at concentrations of 25 and 100 nM followed by dissociation at pH7.4. The surface was regenerated using 10 mM Glycine-HCl, pH1.5.
Regarding B11, the binding result was “binds”.

Consider B12, for which the binding result was “binds”.

For the molecule B13, the binding result is “binds”.
